In test [1] the test system is ovariectomized (OVX) female SD rats. Description: Bone density by DXA in ovariectomized (OVX) rats after hormone administration (Example 1). The class given is in vivo, rat. The following applies: for bone density of the ramal portion / bone density of the femur / bone density of the lumbar vertebrae: four times a week for 10 weeks; for bone density of the ramal portion: FIG. 2; for bone density of the femur / bone density of the lumbar vertebrae: DXA. The protocol:
Forty female SD rats were used. At the age of 20 weeks after birth, 35 of the animals were subjected to OVX (ovariectomy) and the remaining five were subjected to Sham operation. Starting at the age of 30 weeks when bone resorption progressed fully, animals of the OVX group were subcutaneously administered with hormones for 10 weeks on a four-times-a-week basis. Five of the group administered with human PTH (1-84) were administered a dose of 10 μg/kg body weight, another five a dose of 40 μg/kg body weight and the last five a dose of 150 μg/kg body weight. The group administered with 17β-estradiol as estrogen consisted of 5 rats, which were administered a dose of […] body weight. Ten rats were administered with both hormones, 17β-estradiol at a dose of 10 μg/kg body weight and human PTH (1-84) at different doses of 10 μg/kg body weight (in 5 rats) and 150 μg/kg body weight (in the other five). After the hormone administration and at the age of 40 weeks after birth, the mandibular bone, femur and lumbar vertebrae were extracted and measured for bone density and bone mineral content by DXA (Aloca). Measurement on the mandibular bone was conduced at two sites, the alveolar bone portion including the posterior teeth and the ramal portion.

In test [2] the test system is ovariectomized female SD rats with tooth removal. Nature of the test: Bone density and bone mineral content by DXA in OVX rats with upper jaw posterior teeth extracted (Example 2). The test is classed as in vivo, rat. Particulars: 150 μg/kg body weight s.c., four times a week for 10 weeks. The text has this:
Twenty-three female SD rats (body weight; 230-250 g) were used. At the age of 20 weeks after birth, 15 of the animals were subjected to OVX (ovariectomy) and the remaining eight were subjected to Sham operation. Then, at the age of 22 weeks after birth, ten of the ovariectomized rats and four in the Sham operation group had the posterior teeth in the upper jaw extracted. Starting at the age of 30 weeks when bone resorption progressed fully, five of the ovariectomized rats that had the posterior teeth in the upper jaw extracted were subcutaneously administered with human PTH (1-84) at a dose of 150 μg/kg body weight for 10 weeks on a four-time-a-week basis. After the administration of human PTH (1-84) and at the age of 40 weeks after birth, the whole mandibular bone was extracted and the bone densities and bone mineral contents in the whole mandibular bone and the mandibular molar portion were measured by DXA (Aloca).

Setting [3] is: OVX rats, 10, 40, 150 μg/kg body weight s.c.
Where [4] appears, read: OVX rats, dose of 150 μg/kg body weight s.c.

Consider `C[C@]12CC[C@@H]3c4ccc(O)cc4CC[C@H]3[C@@H]1CC[C@@H]2O` [17β-estradiol, estra-1,3,5(10)-trien-3,17β-diol, reference compound], for which, in test [1] (OVX rats, s.c.), the “bone density of the ramal portion” value is “did not recover”.

B1: human PTH (1-84) (protein, UniProt P01270 32-115, looked up)
Parathyroid hormone: SVSEIQLMHNLGKHLNSMERVEWLRKKLQDVHNFVALGAPLAPRDAGSQRPRKKEDNVLVESHEKSLGEADKADVNVLTKAKSQ
modifications: Parathyroid hormone
notes: human parathyroid hormone consisting of 84 amino acid residues
For B1, the “bone density of the mandibular alveolar bone portion” value in test [1] (OVX rats, 150 μg/kg body weight human PTH (1-84) alone, s.c., 10 weeks, FIG. 1) is “significant increases over the OVX group and returned to the level for the Sham operation group”. Also, in test [1] (setting [3]), the “bone density of the femur” value is on record as “increased in a dose-dependent manner” and the “bone density of the lumbar vertebrae” value is given as “increased in a dose-dependent manner”. Also, in test [1] (setting [4]), the “bone density of the femur” value is “almost recovered to the level for the Sham operation group” and the “bone density of the lumbar vertebrae” value was “almost recovered to the level for the Sham operation group”. In addition, the “bone density of the ramal portion” value in test [1] (OVX rats, s.c.) is “did not recover”. Further, the “bone density in the mandibular bone (summary)” value in test [1] (ovariectomized aged female rats, summary statement) is on record as “a distinct improvement in bone density”. The “bone mineral content of whole mandibular bone” value in test [2] (FIG. 3) is listed as “increased noticeably”. For the same molecule, the “bone mineral content of the mandibular molar portion” value in test [2] (FIG. 4) is given as “increased noticeably”.
